From PMC11405395 (The EMBO Journal, 2024)

How the values were obtained:
[1] = biological target: T1, Homo sapiens DNA polymerase ε (POLE1, POLE2, POLE3, POLE4) (human, UniProt Q07864 1-2286; P56282 1-527; Q9NRF9 1-147; Q9NR33 1-117); assay: co-IP; purified proteins mixed: 10 nM RTEL1-FLAG with 15 nM hsPol ε, 10 min on ice; anti-FLAG M2 magnetic beads; 25 mM Hepes-KOH pH 7.6, 200 mM KOAc, 0.02% NP-40-S, 0.1 mg/mL BSA, 1 mM DTT, 10 mM Mg(OAc)2; immunoblotting; conditions: both partners purified
T1 construct: POLE1 (catalytic subunit of DNA polymerase ε), human; POLE2 (homologue of budding yeast Dpb2), human (PolE2_tev_2XFLAG; tag removed with TEV protease); POLE3, human; POLE4, human; The methods call the removed tag 3FLAG, the strain and plasmid 2XFLAG; also called hsPOL ε; POL ε; source: S. cerevisiae strain ySP061, purified (anti-FLAG M2 resin, TEV cleavage, MonoQ, Superdex 200); not shown: …
T1 sequence (Q07864 whole entry, chain 1 of 4): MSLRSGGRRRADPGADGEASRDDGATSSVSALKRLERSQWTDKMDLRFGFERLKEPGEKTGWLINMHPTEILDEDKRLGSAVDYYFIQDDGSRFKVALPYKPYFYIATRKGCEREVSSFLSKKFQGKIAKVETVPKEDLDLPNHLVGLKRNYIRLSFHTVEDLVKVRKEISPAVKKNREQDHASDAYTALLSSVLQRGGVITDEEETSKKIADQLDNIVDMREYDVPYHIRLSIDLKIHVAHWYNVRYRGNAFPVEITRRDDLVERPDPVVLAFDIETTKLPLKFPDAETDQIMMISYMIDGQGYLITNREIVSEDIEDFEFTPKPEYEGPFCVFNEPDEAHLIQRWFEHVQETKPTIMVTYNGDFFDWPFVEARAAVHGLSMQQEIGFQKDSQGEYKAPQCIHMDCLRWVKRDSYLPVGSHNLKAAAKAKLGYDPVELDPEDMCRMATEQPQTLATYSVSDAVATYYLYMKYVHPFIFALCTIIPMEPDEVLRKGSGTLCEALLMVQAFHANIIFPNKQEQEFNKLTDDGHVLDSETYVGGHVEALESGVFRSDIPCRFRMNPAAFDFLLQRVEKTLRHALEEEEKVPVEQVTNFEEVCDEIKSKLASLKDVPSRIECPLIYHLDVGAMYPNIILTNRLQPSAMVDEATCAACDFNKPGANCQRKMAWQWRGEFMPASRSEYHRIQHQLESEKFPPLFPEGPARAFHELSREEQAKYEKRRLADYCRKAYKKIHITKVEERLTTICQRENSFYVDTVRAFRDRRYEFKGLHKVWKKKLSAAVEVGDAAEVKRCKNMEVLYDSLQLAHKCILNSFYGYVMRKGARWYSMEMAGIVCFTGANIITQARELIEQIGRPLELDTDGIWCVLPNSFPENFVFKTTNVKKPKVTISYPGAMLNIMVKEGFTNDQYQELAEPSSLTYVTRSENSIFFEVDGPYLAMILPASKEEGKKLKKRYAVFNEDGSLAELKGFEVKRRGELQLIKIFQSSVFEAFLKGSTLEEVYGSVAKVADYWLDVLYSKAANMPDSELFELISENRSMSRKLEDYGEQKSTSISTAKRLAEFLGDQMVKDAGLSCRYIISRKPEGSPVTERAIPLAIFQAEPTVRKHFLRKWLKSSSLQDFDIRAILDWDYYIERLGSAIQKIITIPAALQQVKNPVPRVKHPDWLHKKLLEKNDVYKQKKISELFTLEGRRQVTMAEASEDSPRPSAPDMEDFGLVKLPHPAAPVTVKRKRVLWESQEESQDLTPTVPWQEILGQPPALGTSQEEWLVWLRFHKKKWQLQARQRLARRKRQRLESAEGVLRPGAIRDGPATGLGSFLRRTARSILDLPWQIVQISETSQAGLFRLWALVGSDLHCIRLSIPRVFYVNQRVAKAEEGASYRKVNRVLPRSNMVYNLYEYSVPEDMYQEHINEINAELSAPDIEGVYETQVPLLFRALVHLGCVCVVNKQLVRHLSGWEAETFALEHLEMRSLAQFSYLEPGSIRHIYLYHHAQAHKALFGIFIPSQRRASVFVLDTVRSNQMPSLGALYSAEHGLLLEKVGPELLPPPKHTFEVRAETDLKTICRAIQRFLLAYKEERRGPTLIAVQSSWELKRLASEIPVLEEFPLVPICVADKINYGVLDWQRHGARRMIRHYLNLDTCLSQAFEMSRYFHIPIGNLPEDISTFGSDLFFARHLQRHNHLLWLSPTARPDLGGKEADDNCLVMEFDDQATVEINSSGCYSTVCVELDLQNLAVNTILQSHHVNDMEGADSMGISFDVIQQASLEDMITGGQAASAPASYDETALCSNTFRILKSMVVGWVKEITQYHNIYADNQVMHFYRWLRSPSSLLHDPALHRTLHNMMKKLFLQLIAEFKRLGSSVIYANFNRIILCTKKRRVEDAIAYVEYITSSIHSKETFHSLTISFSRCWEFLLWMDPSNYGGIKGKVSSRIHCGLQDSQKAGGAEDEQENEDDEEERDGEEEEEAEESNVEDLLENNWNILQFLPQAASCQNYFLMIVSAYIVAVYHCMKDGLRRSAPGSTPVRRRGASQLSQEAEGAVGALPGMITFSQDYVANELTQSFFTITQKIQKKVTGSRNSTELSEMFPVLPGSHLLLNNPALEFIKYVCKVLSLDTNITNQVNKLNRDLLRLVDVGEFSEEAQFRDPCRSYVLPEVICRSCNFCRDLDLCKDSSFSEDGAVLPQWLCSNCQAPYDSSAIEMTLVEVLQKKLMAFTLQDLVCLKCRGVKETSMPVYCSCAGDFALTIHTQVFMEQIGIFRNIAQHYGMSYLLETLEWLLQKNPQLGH
T1 sequence (P56282 whole entry, chain 2 of 4): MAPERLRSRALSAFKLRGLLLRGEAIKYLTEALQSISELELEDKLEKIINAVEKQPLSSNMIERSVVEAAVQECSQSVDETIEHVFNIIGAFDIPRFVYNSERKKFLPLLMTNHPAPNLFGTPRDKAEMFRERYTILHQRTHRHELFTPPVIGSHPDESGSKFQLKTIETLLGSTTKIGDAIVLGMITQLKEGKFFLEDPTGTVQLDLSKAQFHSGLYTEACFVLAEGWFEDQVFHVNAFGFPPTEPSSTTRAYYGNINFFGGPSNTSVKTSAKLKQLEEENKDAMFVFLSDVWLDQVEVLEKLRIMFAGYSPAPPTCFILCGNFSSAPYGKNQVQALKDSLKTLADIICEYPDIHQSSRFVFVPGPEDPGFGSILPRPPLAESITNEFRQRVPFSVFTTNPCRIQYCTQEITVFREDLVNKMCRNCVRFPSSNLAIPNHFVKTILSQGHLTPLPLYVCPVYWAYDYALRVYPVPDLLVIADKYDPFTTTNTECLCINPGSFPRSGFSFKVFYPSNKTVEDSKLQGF
T1 sequence (Q9NRF9 whole entry, chain 3 of 4): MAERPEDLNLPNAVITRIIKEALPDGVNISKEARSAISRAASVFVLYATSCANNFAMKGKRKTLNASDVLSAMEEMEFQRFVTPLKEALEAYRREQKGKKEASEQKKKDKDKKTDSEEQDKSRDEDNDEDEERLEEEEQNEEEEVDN
T1 sequence (Q9NR33 whole entry, chain 4 of 4): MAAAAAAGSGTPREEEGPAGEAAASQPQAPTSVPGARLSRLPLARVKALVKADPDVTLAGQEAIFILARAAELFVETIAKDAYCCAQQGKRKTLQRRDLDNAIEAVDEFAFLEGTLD

[2] = biological target: T2, Homo sapiens CMG helicase (CDC45-MCM2-7-GINS) (human, UniProt P49736 1-904; P25205 1-808; P33991 1-863; P33992 1-734; Q14566 1-821; P33993 …); assay: co-IP; purified proteins mixed: 10 nM RTEL1-FLAG with 15 nM hsCMG, 10 min on ice; anti-FLAG M2 magnetic beads; 25 mM Hepes-KOH pH 7.6, 100 mM KOAc, 0.02% NP-40-S, 0.1 mg/mL BSA, 1 mM DTT, 10 mM Mg(OAc)2; immunoblotting; conditions: both partners purified
T2 construct: MCM2, human, subunit of CMG; MCM3, human, subunit of CMG; MCM4, human, subunit of CMG; MCM5, human, subunit of CMG; MCM6, human, subunit of CMG; MCM7, human, subunit of CMG; CDC45, human, subunit of CMG; SLD5 (GINS4), human, GINS subunit of CMG (PrA-3TEV-HsSld5; eluted from IgG Sepharose with TEV protease); PSF1 (GINS1), human, GINS subunit of CMG; PSF2 (GINS2), human, GINS subunit of CMG; PSF3 …

Binder | binding result [1] | binding result [2]
RTEL1ΔR875-V881 (enzyme, human, UniProt Q9NZ71-1 1-1219, looked up, Plasmid pSP52; also called hsRTEL1ΔR875-V881; source: S. cerevisiae strain ySP076, purified (anti-FLAG M2 resin, HiLoad Superdex 200); not shown: 2XFLAG, C-terminal, kept) MPKIVLNGVTVDFPFQPYKCQQEYMTKVLECLQQKVNGILESPTGTGKTLCLLCTTLAWREHLRDGISARKIAERAQGELFPDRALSSWGNAAAAAGDPIACYTDIPKIIYASRTHSQLTQVINELRNTSYRPKVCVLGSREQLCIHPEVKKQESNHLQIHLCRKKVASRSCHFYNNVEEKSLEQELASPILDIEDLVKSGSKHRVCPYYLSRNLKQQADIIFMPYNYLLDAKSRRAHNIDLKGTVVIFDEAHNVEKMCEESASFDLTPHDLASGLDVIDQVLEEQTKAAQQGEPHPEFSADSPSPGLNMELEDIAKLKMILLRLEGAIDAVELPGDDSGVTKPGSYIFELFAEAQITFQTKGCILDSLDQIIQHLAGRAGVFTNTAGLQKLADIIQIVFSVDPSEGSPGSPAGLGALQSYKVHIHPDAGHRRTAQRSDAWSTTAARKRGKVLSYWCFSPGHSMHELVRQGVRSLILTSGTLAPVSSFALEMQIPFPVCLENPHIIDKHQIWVGVVPRGPDGAQLSSAFDRRFSEECLSSLGKALGNIARVVPYGLLIFFPSYPVMEKSLEFWRARDLARKMEALKPLFVEPRSKGSFSETISAYYARVAAPGSTGATFLAVCRGKASEGLDFSDTNGRGVIVTGLPYPPRMDPRVVLKMQFLDEMKGQGGAGGQFLSGQEWYRQQASRAVNQAIGRVIRHRQDYGAVFLCDHRFAFADARAQLPSWVRPHVRVYDNFGHVIRDVAQFFRVAERTMPAPAPRATAPSVRGEDAVSEAKSPGPFFSTRKAKSLDLHVPSLKQRSSGSPAAGDPESSLCVEYEQEPVPARQRPRGLLAALEHSEQRAGSPGEEQAHSCSTLSLLSEKRPAEEPRGGSHPEEPVAGAQTDRAKLFMVAVKQELSQANFATFTQALQDYKGSDDFAALAACLGPLFAEDPKKHNLLQGFYQFVRPHHKQQFEEVCIQLTGRGCGYRPEHSIPRRQRAQPVLDPTGRTAPDPKLTVSTAAAQQLDPQEHLNQGRPHLSPRPPPTGDPGSQPQWGSGVPRAGKQGQHAVSAYLADARRALGSAGCSQLLAALTAYKQDDDLDKVLAVLAALTTAKPEDFPLLHRFSMFVRPHHKQRFSQTCTDLTGRPYPGMEPPGPQEERLAVPPVLTHRAPQPGPSRSEKTGKTQSKISSFLRQRPAGTVGAGGEDAGPSQSSGPPHGPAASEWGL | binds | 
RTEL1ΔL834-G846 (enzyme, human, UniProt Q9NZ71-1 1-1219, looked up, Plasmid pSP48; also called hsRTEL1ΔL834-G846; source: S. cerevisiae strain ySP072, purified (anti-FLAG M2 resin, HiLoad Superdex 200); not shown: 2XFLAG, C-terminal, kept) MPKIVLNGVTVDFPFQPYKCQQEYMTKVLECLQQKVNGILESPTGTGKTLCLLCTTLAWREHLRDGISARKIAERAQGELFPDRALSSWGNAAAAAGDPIACYTDIPKIIYASRTHSQLTQVINELRNTSYRPKVCVLGSREQLCIHPEVKKQESNHLQIHLCRKKVASRSCHFYNNVEEKSLEQELASPILDIEDLVKSGSKHRVCPYYLSRNLKQQADIIFMPYNYLLDAKSRRAHNIDLKGTVVIFDEAHNVEKMCEESASFDLTPHDLASGLDVIDQVLEEQTKAAQQGEPHPEFSADSPSPGLNMELEDIAKLKMILLRLEGAIDAVELPGDDSGVTKPGSYIFELFAEAQITFQTKGCILDSLDQIIQHLAGRAGVFTNTAGLQKLADIIQIVFSVDPSEGSPGSPAGLGALQSYKVHIHPDAGHRRTAQRSDAWSTTAARKRGKVLSYWCFSPGHSMHELVRQGVRSLILTSGTLAPVSSFALEMQIPFPVCLENPHIIDKHQIWVGVVPRGPDGAQLSSAFDRRFSEECLSSLGKALGNIARVVPYGLLIFFPSYPVMEKSLEFWRARDLARKMEALKPLFVEPRSKGSFSETISAYYARVAAPGSTGATFLAVCRGKASEGLDFSDTNGRGVIVTGLPYPPRMDPRVVLKMQFLDEMKGQGGAGGQFLSGQEWYRQQASRAVNQAIGRVIRHRQDYGAVFLCDHRFAFADARAQLPSWVRPHVRVYDNFGHVIRDVAQFFRVAERTMPAPAPRATAPSVRGEDAVSEAKSPGPFFSTRKAKSLDLHVPSLKQRSSGSPAAGDPESSLCVEYEQEPVPARQRPRGSPGEEQAHSCSTLSLLSEKRPAEEPRGGRKKIRLVSHPEEPVAGAQTDRAKLFMVAVKQELSQANFATFTQALQDYKGSDDFAALAACLGPLFAEDPKKHNLLQGFYQFVRPHHKQQFEEVCIQLTGRGCGYRPEHSIPRRQRAQPVLDPTGRTAPDPKLTVSTAAAQQLDPQEHLNQGRPHLSPRPPPTGDPGSQPQWGSGVPRAGKQGQHAVSAYLADARRALGSAGCSQLLAALTAYKQDDDLDKVLAVLAALTTAKPEDFPLLHRFSMFVRPHHKQRFSQTCTDLTGRPYPGMEPPGPQEERLAVPPVLTHRAPQPGPSRSEKTGKTQSKISSFLRQRPAGTVGAGGEDAGPSQSSGPPHGPAASEWGL |  | binds
RTEL1 ΔE813-E821 ΔR875-V881 (enzyme, human, UniProt Q9NZ71-1 1-1219, looked up, Plasmid pSP53; also called hsRTEL1ΔE813-E821 ΔR875-V881; source: S. cerevisiae strain ySP070, purified (anti-FLAG M2 resin, HiLoad Superdex 200); not shown: 2XFLAG, C-terminal, kept) MPKIVLNGVTVDFPFQPYKCQQEYMTKVLECLQQKVNGILESPTGTGKTLCLLCTTLAWREHLRDGISARKIAERAQGELFPDRALSSWGNAAAAAGDPIACYTDIPKIIYASRTHSQLTQVINELRNTSYRPKVCVLGSREQLCIHPEVKKQESNHLQIHLCRKKVASRSCHFYNNVEEKSLEQELASPILDIEDLVKSGSKHRVCPYYLSRNLKQQADIIFMPYNYLLDAKSRRAHNIDLKGTVVIFDEAHNVEKMCEESASFDLTPHDLASGLDVIDQVLEEQTKAAQQGEPHPEFSADSPSPGLNMELEDIAKLKMILLRLEGAIDAVELPGDDSGVTKPGSYIFELFAEAQITFQTKGCILDSLDQIIQHLAGRAGVFTNTAGLQKLADIIQIVFSVDPSEGSPGSPAGLGALQSYKVHIHPDAGHRRTAQRSDAWSTTAARKRGKVLSYWCFSPGHSMHELVRQGVRSLILTSGTLAPVSSFALEMQIPFPVCLENPHIIDKHQIWVGVVPRGPDGAQLSSAFDRRFSEECLSSLGKALGNIARVVPYGLLIFFPSYPVMEKSLEFWRARDLARKMEALKPLFVEPRSKGSFSETISAYYARVAAPGSTGATFLAVCRGKASEGLDFSDTNGRGVIVTGLPYPPRMDPRVVLKMQFLDEMKGQGGAGGQFLSGQEWYRQQASRAVNQAIGRVIRHRQDYGAVFLCDHRFAFADARAQLPSWVRPHVRVYDNFGHVIRDVAQFFRVAERTMPAPAPRATAPSVRGEDAVSEAKSPGPFFSTRKAKSLDLHVPSLKQRSSGSPAAGDPQEPVPARQRPRGLLAALEHSEQRAGSPGEEQAHSCSTLSLLSEKRPAEEPRGGSHPEEPVAGAQTDRAKLFMVAVKQELSQANFATFTQALQDYKGSDDFAALAACLGPLFAEDPKKHNLLQGFYQFVRPHHKQQFEEVCIQLTGRGCGYRPEHSIPRRQRAQPVLDPTGRTAPDPKLTVSTAAAQQLDPQEHLNQGRPHLSPRPPPTGDPGSQPQWGSGVPRAGKQGQHAVSAYLADARRALGSAGCSQLLAALTAYKQDDDLDKVLAVLAALTTAKPEDFPLLHRFSMFVRPHHKQRFSQTCTDLTGRPYPGMEPPGPQEERLAVPPVLTHRAPQPGPSRSEKTGKTQSKISSFLRQRPAGTVGAGGEDAGPSQSSGPPHGPAASEWGL | binds | 
